For the assay, the target named is BraA.Gα1 (Gα subunit of B. rapa), GAL4 DNA-binding domain fusion (Brassica rapa).
Chain of BraA.Gα1 (Gα subunit of B. rapa), GAL4 DNA-binding domain fusion (Brassica rapa) (P18064 other isoform, or with tags, fused parts or gaps): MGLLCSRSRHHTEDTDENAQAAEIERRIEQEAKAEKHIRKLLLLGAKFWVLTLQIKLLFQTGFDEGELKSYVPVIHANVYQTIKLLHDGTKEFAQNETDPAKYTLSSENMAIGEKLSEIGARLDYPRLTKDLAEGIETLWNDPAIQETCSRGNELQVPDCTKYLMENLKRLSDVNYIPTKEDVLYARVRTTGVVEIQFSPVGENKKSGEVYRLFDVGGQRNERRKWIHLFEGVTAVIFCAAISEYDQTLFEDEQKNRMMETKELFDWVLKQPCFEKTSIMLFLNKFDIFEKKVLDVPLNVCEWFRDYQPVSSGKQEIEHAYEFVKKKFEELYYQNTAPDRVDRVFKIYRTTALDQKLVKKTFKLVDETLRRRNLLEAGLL

For “RGS-domain of BraA.RGS1 (C-terminal cytosolic domain containing the RGS-box), GAL4 activation domain fusion (domain or fragment)”, the Km of steady state Pi release (ENZchek) from 1 μM GTP-loaded BraA.Gα1 with 0.1–2.0 μM purified RGS-domain of BraA.RGS1 (His-tagged proteins from E. coli) stood at 0.244. Turning to “RGS-domain of BraA.RGS2 (C-terminal cytosolic domain containing the RGS-box), GAL4 activation domain fusion (domain or fragment)”, the Km of steady state Pi release (ENZchek) from 1 μM GTP-loaded BraA.Gα1 with 0.1–2.0 μM purified RGS-domain of BraA.RGS2 (His-tagged proteins from E. coli) is 0.311.

For the origin of these results see PMC5794992.
